Test results: publication PMC3500698 (Science signaling, 2012)

Key:
JNK1, p38α and ERK2 = assay: MAPK interaction profile from FP binding affinities; design: species or system human; conditions: from FP binding affinities to JNK1, p38α and ERK2
p38α (human) = p38α (human) (UniProt Q16539); assay: fluorescence polarisation
[1] = target: extracellular signal-regulated kinase 2 (ERK2) (human) (UniProt P28482); assay: fluorescence polarisation
[2] = target: extracellular signal-regulated kinase 2 (ERK2) (human, UniProt P28482); assay: fluorescence polarisation
Sequence of extracellular signal-regulated kinase 2 (ERK2) (P28482 whole entry): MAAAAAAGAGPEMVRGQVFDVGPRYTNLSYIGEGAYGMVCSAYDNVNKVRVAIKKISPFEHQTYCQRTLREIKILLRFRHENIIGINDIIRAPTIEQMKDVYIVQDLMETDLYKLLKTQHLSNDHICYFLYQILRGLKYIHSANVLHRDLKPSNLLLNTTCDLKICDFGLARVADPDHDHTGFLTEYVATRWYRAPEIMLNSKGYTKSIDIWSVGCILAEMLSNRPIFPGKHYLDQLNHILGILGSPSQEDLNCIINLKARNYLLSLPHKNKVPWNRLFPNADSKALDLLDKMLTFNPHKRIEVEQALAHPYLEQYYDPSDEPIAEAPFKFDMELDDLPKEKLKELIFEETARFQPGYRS

p38α = p38α (human, UniProt Q16539 1-360); assay: fluorescence polarisation
Sequence of p38α (Q16539 whole entry): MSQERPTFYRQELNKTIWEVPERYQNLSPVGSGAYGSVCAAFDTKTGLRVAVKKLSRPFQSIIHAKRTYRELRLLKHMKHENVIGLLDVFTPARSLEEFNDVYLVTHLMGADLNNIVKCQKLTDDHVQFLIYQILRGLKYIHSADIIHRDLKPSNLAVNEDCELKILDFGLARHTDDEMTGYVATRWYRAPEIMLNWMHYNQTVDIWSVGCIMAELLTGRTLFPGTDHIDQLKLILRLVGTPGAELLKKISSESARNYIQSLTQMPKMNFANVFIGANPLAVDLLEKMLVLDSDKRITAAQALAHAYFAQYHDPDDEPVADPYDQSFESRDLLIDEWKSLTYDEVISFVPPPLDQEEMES

Sequence of p38α (human) (Q16539 whole entry): as above
Sequence of extracellular signal-regulated kinase 2 (ERK2) (human) (P28482 whole entry): as the sequence (P28482 whole entry) above

LERPSRDHLYLPLE [pepNFAT4]
MAPK binding profile (in words) (JNK1, p38α and ERK2): bound JNK1 exclusively | MAPK binding profile (in words) (JNK1, p38α and ERK2; listed as NFAT4): JNK-specific

pepMK2 (C-terminal MAPK docking peptide of MK2)
fold preference for the cognate MAPK (p38α against ERK2) (p38α (human)): 400 fold

pepRSK1 (C-terminal MAPK docking peptide of RSK1)
fold preference for the cognate MAPK (ERK2 against p38α) [1]: 20 fold

B1: pepSynth-revD (artificially designed revD-motif peptide) (designed binder)
peptide: LSLSSLAASSLAKRRQQ
Kd [2]: ~10 µM | Kd (p38α): ~30 µM
